Laboratory results: publication PMC4450592

How the values were obtained:
[1] = biological target: HIS-gG3PD (full-length gG3PD, N-terminal 6xHIS-tagged) (Giardia duodenalis (isolate WB clone C6)); assay: native gel or EMSA; 3-12% Blue Native PAGE of purified HIS-tagged recombinant proteins (1 μg by the methods, 3 μmol by the legend), silver stain or anti-HIS blot
[2] = biological target: HIS-gG3PD_C (C-terminal half of gG3PD, N-terminal 6xHIS-tagged) (Giardia duodenalis (isolate WB clone C6)); assay: as above

**Q.** With “HIS-gG3PD (full-length gG3PD, N-terminal 6xHIS-tagged) (enzyme)” as the substance, how does the stoichiometry N [1] read?
**A.** 2

**Q.** “HIS-gG3PD_C (C-terminal half of gG3PD, N-terminal 6xHIS-tagged) (domain or fragment)” was tested. Which stoichiometry N [2] did it give?
**A.** 2
